From US6500919B1, “Melanoma associated antigenic polypeptide, epitopes thereof and vaccines against melanoma” (IntroGene B.V., priority 1994, dated 2002) come the findings set out here.

The target of one series is T1, HLA-A2.1 (Homo sapiens, UniProt P04439, D140Y/D185E/D98H/E176V/E277Q/G131W/G231S/I119V/I121R/I166T/I218V/L300P/L318F/N151K/N90K/P208A/P217A/Q86G/Q94H/R138H/R169H/T345S).
T1 construct: HLA-A2.1 stabilization at the cell surface was determined by flow cytometry using mAb BB7.2; endogenous in cells; host or cells: T2 cells (processing defective, HLA-A2.1+)
The experiment in a line: HLA-A2.1 peptide binding assay (HLA-A2.1 stabilization on processing defective T2 cells, flow cytometry with mAb BB7.2). In general terms: A flow cytometer gives signals particle by particle.

Series [1] deals with peptide loaded HLA-A2.1+ T2 cells.
The target in series [2] is T2, HLA-A2.1 (on processing defective T2 cells) (human).
T2 construct: also called MHC HLA-A2.1 molecule
The experiment in a line: peptide binding assay on processing defective T2 cells.

Regarding M-L-G-T-H-T-M-E-V (MLGTHTMEV), in the series with HLA-A2.1, the “binding to the MHC HLA-A2.1 molecule” value is listed as “bind”.

Consider V-L-P-D-G-Q-V-I-W-V (VLPDGQVIWV), for which the “binding to the MHC HLA-A2.1 molecule” value with HLA-A2.1 is reported as “bind”.

Consider `CC(C)C[C@H](NC(=O)[C@H](CCCNC(=N)N)NC(=O)[C@H](CC(C)C)NC(=O)[C@@H](NC(=O)[C@H](C)NC(=O)[C@@H](NC(=O)CNC(=O)[C@H](CC(=O)O)NC(=O)[C@H](CC(C)C)NC(=O)[C@@H](N)CC(C)C)[C@@H](C)O)[C@@H](C)O)C(=O)O` [L-L-D-G-T-A-T-L-R-L], for which, in series [1], the “recognized by anti-melanoma cytotoxic T lymphocytes in the context of HLA-A2.1” value is “recognized”.

Turning to R-L-M-K-Q-D-F-S-V (RLMKQDFSV), the “binding to the MHC HLA-A2.1 molecule” value with HLA-A2.1 is “bind”.

On to LLDGTATLRL (also called gp100 amino acids 457-466) [gp100 peptide LLDGTATLRL], for which the binding result in series [2] is “binds”.
